Assay results: patent US20220112250A1

Molecular target: Rat CaV2.2 channel (α1B splice variant e37a, α2δ1 and β3) expressed in HEK293T cells (rat) (UniProt Q02294)
Assay: cell-based or functional assay

UniProt Q02294, sequence (Q02294 other isoform, or with tags, fused parts or gaps mutant, chain 1 of 3): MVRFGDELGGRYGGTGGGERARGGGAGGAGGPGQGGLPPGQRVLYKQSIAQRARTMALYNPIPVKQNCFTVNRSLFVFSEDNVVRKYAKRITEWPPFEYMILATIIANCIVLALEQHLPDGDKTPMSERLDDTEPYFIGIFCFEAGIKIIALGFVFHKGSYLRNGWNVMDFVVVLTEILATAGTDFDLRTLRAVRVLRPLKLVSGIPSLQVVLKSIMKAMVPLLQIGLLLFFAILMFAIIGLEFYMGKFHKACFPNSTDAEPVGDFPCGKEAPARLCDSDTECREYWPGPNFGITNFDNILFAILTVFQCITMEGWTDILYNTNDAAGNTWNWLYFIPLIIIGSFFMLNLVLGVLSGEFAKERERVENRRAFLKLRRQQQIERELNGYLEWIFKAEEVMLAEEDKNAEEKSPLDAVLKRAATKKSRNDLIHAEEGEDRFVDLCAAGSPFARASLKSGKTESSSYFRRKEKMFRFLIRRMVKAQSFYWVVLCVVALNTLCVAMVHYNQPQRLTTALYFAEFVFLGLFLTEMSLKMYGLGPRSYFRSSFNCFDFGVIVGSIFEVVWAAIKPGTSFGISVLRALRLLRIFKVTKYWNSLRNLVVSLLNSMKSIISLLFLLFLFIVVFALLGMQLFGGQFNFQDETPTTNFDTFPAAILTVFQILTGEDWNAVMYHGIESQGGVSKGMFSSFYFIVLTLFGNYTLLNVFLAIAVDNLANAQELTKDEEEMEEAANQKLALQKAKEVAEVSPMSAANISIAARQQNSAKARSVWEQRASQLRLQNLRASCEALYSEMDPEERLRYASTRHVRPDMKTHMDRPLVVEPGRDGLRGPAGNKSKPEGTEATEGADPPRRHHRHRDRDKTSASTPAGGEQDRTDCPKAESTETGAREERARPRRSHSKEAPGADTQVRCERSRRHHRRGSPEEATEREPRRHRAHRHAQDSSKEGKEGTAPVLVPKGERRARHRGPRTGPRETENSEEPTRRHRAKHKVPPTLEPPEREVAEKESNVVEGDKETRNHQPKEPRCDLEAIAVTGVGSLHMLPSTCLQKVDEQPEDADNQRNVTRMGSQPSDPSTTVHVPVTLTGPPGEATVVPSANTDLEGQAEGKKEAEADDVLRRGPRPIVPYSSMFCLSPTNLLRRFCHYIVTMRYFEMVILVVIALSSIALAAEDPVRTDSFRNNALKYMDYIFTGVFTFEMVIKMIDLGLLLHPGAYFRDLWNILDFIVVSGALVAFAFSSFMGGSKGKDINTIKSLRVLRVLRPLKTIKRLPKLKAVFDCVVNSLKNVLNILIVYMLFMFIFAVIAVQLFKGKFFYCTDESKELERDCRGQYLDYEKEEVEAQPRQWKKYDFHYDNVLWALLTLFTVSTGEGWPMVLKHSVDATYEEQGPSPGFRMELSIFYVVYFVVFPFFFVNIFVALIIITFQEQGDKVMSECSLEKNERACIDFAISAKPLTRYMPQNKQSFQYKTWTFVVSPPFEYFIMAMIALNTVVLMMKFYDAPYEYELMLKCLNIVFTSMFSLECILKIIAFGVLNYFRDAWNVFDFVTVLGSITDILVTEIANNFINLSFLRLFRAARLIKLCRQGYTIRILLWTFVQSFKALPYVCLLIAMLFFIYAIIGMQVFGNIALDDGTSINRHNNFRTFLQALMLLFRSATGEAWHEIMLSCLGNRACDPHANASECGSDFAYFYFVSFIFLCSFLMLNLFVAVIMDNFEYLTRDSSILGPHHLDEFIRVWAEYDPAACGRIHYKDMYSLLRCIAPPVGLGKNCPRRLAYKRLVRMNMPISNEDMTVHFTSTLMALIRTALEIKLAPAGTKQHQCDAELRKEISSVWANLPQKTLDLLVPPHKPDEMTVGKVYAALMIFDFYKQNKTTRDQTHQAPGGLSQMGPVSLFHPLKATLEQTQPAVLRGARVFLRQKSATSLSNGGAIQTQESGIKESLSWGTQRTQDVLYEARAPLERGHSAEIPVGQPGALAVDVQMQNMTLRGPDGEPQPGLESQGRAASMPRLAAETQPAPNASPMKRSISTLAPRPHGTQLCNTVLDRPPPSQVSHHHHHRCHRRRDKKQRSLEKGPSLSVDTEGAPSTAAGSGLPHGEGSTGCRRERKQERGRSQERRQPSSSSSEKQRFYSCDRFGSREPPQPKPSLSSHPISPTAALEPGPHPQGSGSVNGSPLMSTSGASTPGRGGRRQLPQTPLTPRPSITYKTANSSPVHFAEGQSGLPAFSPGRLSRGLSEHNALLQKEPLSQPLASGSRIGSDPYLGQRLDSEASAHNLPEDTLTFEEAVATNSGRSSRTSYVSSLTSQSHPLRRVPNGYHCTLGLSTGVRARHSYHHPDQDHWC
UniProt Q02294, sequence (P54290 25-1091, stated change not applied, chain 2 of 3, further chain): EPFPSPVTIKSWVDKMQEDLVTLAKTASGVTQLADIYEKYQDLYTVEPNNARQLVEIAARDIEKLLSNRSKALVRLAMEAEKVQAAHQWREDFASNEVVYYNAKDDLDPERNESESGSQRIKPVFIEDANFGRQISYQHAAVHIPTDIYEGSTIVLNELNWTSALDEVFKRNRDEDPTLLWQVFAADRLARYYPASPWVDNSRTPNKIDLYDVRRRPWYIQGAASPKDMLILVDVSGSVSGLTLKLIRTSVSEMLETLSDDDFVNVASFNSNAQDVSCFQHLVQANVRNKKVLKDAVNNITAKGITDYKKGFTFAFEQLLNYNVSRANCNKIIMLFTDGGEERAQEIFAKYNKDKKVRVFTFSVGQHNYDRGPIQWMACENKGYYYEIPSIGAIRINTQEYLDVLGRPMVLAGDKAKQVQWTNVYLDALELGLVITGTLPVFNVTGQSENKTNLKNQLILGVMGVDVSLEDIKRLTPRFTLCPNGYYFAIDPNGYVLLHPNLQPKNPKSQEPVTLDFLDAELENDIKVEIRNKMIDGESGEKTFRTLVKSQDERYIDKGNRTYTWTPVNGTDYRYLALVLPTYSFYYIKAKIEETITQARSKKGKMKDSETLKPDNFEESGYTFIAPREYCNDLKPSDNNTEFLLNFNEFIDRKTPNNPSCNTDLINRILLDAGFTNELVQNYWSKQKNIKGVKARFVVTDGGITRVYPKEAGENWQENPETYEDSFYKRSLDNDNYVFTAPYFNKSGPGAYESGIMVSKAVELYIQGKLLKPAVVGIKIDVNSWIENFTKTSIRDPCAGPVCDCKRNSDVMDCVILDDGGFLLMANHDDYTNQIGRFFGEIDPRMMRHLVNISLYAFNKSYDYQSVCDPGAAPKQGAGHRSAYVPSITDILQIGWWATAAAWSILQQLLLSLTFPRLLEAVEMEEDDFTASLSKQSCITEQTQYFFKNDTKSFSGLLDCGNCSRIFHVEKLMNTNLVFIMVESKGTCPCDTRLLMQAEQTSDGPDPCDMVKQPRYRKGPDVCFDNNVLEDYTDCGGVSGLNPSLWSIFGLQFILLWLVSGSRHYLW
UniProt Q02294, sequence (P54287 whole entry, stated change not applied, chain 3 of 3, further chain, canonical isoform): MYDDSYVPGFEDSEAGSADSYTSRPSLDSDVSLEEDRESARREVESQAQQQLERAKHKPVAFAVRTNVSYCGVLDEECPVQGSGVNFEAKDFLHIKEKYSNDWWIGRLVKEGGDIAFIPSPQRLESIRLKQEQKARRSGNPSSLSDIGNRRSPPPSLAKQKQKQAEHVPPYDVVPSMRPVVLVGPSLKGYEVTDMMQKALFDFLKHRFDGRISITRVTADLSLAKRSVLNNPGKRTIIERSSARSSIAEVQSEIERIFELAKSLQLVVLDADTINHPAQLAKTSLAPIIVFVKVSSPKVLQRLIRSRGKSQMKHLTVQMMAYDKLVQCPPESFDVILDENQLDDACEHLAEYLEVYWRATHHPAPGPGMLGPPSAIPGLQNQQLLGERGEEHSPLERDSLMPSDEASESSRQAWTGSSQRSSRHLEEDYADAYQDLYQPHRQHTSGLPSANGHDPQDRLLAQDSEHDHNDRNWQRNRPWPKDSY

For MVIIA (ziconotide) (peptide), the half inhibitory concentration of CaV2.2 channel current was 0.0436 µM.
